# Test results: patent publication US10413588B2, “Probiotic function of human intelectin” (Wisconsin Alumni Research Foundation, priority 2015, dated 2019)
# Several values for one entry are separate records, joined by “and”; a condition that tells them apart may be missing. Identical values can stand only once.
# Key:
# [1] = system: infant male fecal microbiome; assay: Flow cytometry binding to infant fecal microbiome; parameters: species or system human; settings: fecal sample, 15 μg/mL intelectin + 10 mM CaCl2
# Method: Human fecal samples provide a non-invasive proxy of the intestinal microbiome of a patient. The inventors have isolated the intestinal microbiome from human fecal samples and analyzed it for hIntL-1 binding. The isolated microbiome was fixed using an aqueous solution of 1% formaldehyde. Cells were stained as described elsewhere, using either a solution including calcium ions (100 mM) or one containing the calcium ion chelator EDTA. Microbes were exposed to 20 mM HEPES (pH 7.2), 150 mM NaCl, 10 mM CaCl2, 15 μg/mL Strep-tagged-hIntL-1, 0.1% bovine serum albumin (BSA), 0.05% tween-20, 2 μg/mL StrepMAB Classic conjugated to Oyster 645 (IBA Lifesciences, cat. no.: 2-1555-050). […] Cells are analyzed consecutively on a BD LSRII flow cytometer using identical instrument setting. […]
# Humans have two intelectins: hIntL-1 and human intelectin-2 (hIntL-2). […] To compare hIntL-1 and hIntL02, the inventors isolated the intestinal mirobiome from human feces and analyzed it for hIntL-2 binding. […] The samples were processed and analyzed as described above. Cells were analyzed consecutively on a BD LSRII flow cytometer using identical instrument setting. […]
# [2] = Mouse intelectin-1 SPR on immobilized carbohydrates; assay type: binding; settings: referenced to biotin channel
# Text: FIG. 23. Mouse intelectin-1 binding to immobilized carbohydrates. Purified Strep-mIntL-1 binding to immobilized carbohydrates monitored using SPR. […] Data are referenced to the biotin channel.
Molecule,fraction of cells of the infant microbiome bound by the intelectin [1],carbohydrate binding on addition of EDTA [2]
"hIntL-2: human intelectin-2, accession no. Q8WWU7, highly homologous to hIntL-1 (protein, listed as Homo sapiens) MLSMLRTMTRLCFLLFFSVATSGCSAAAASSLEMLSREFETCAFSFSSLPRSCKEIKERCHSAGDGLYFLRTKNGVVYQTFCDMTSGGGGWTLVASVHENDMRGKCTVGDRWSSQQGNKADYPEGDGNWANYNTFGSAEAATSDDYKNPGYYDIQAKDLGIWHVPNKSPMQHWRNSALLRYRTNTGFLQRLGHNLFGIYQKYPVKYRSGKCWNDNGPAIPVVYDFGDAKKTASYYSPYGQREFVAGFVQFRVFNNERAANALCAGIKVTGCNTEHHCIGGGGFFPQGKPRQCGDFSAFDWDGYGTHVKSSCSREITEAAVLLFYR",~32% and 32.2%,
"Strep-mIntL-1: purified Strep-tagged mouse intelectin-1 (protein, UniProt O88310 19-298, looked up, Strep-tag) Intelectin-1a: AAEENLDTNRWGNSFFSSLPRSCKEIKQEHTKAQDGLYFLRTKNGVIYQTFCDMTTAGGGWTLVASVHENNMRGKCTVGDRWSSQQGNRADYPEGDGNWANYNTFGSAEAATSDDYKNPGYFDIQAENLGIWHVPNKSPLHNWRKSSLLRYRTFTGFLQHLGHNLFGLYKKYPVKYGEGKCWTDNGPALPVVYDFGDARKTASYYSPSGQREFTAGYVQFRVFNNERAASALCAGVRVTGCNTEHHCIGGGGFFPEGNPVQCGDFASFDWDGYGTHNGYS",,prevents carbohydrate binding
